Assay results reported in article PMC12714728 (npj Viruses, 2025).
Starred links: 1 amine or outer side, 2 acyl side, 3 side chain; linkers in the order of their positions; H or OH if unused. Positions of bridges follow the written chain, without caps; N, C: chain ends. No end group written: not given here. Suc = O=C(CCC(=O)[*:2])[*:1]

B1: cyclic peptide CP11 (peptide)
peptide: CYRDPLGVAGGMC
modifications: disulfide 1-13
notes: source: synthetic peptide (manual solid phase Fmoc chemistry, iodine oxidation, RP-HPLC)
B2: linear peptide LP1 (peptide)
peptide: Suc-VSLYRDPLGVAGGMGVY-NH2
notes: source: synthetic peptide (manual solid phase Fmoc chemistry, RP-HPLC)
B3: cyclic peptide CP8 (peptide)
peptide: CLYRDPLGVAGGMGC
modifications: not fully specified (bridges); cysteine pairing not given here
notes: as for B1
B4: cyclic peptide CP14 (peptide)
peptide: LYEDPLGVAGGMG
modifications: head-to-tail lactam cyclized (no template)
notes: as for B2

What follows are binders tested against T1, hemagglutinin (HA) ectodomain of A/New Caledonia/20/1999 (H1N1) (influenza A virus A/New …, biotin on the BirA site) (assay: AlphaScreen or HTRF). Details: both partners purified.
Binder B1 has an IC50 of 4.99 µM. B2 gave an IC50 of 22.9 µM. Work on B3 yielded an IC50 of 0.16 µM. B4 gave an IC50 of 1.24 µM. With CYEDPLGVAGGMC (not fully specified; cysteine pairing not given here) [cyclic peptide CP12] the IC50 was 4.95 µM. CYRDPLGVAGEMC (not fully specified; cysteine pairing not given here) [cyclic peptide CP13] gave an IC50 of 12.8 µM.

These binders were tested against T1, hemagglutinin (HA) ectodomain of A/New … (assay: cell-based or functional assay). Details: not given.
B3 was tested, and the “virus neutralization assay (VNA) EC50, H1/NCa virus” value (“virus neutralization assay” for short) was 0.28 µM. With B4 the “virus neutralization assay” value was 45.3 µM. For CYEDPLGVAGGMC (not fully specified; cysteine pairing not given here) [cyclic peptide CP12], the “virus neutralization assay” value was 58.3 µM.
